# Laboratory results: patent publication US20150197568A1
# B1: Antibody 8 scFv (scFv, part only; not given: scFv linker, part only)
# scFv, part: EVQLVQSGGGLIQPGGSLRLSCAASGFTISSNYMIWVRQAPGKGLEWVSDLYYYAGDTYYADSVKGRFTMSRDISKNTVYLQMNSLRAEDTGVYYCARWADDHPRYIDHWGRGTLVTVSSDIVMTQSPSTLSASVGDRVTITCRASQGISSWLAWYQQKPGRAPKVLIYKASTLESGVPSRFSGSGSGTDFTLTISSLQPEDFATYYCQQSWLGGSFGQGTKLEIKR
# B2: Antibody 14 scFv (scFv, part only; not given: scFv linker, part only)
# scFv, part: EVQLVQSGGGLIQPGGSLRLSCAASGFTISSNYMIWVRQAPGKGLEWVSDLYYYAGDTYYADSVKGRFTMSRDISKNTVYLQMNSLRAEDTGVYYCARWADDHNYPHIDVWGRGTLVTVSSDIVMTQSPSTLSASVGDRVTITCRASQGISSWLAWYQQKPGRAPKVLIYKASTLESGVPSRFSGSGSGTDFTLTISSLQPEDFATYYCAAHYAAPWTFGQGTKLEIKR
# B3: Antibody 21 scFv (scFv, part only; not given: scFv linker, part only)
# scFv, part: EVQLVQSGGGLIQPGGSLRLSCAASGFTISSNYMIWVRQAPGKGLEWVSDLYYYAGDTYYADSVKGRFTMSRDISKNTVYLQMNSLRAEDTGVYYCARWADDHPSHIDVWGRGTLVTVSSDIVMTQSPSTLSASVGDRVTITCRASQGISSWLAWYQQKPGRAPKVLIYKASTLESGVPSRFSGSGSGTDFTLTISSLQPEDFATYYCQQSWLGGSFGQGTKLEIKR
# B4: Antibody 22 scFv (scFv, part only; not given: scFv linker, part only)
# scFv, part: EVQLVQSGGGLIQPGGSLRLSCAASGFTISSNYMIWVRQAPGKGLEWVSDLYYYAGDTYYADSVKGRFTMSRDISKNTVYLQMNSLRAEDTGVYYCARWADDHNNTYIDVWGRGTLVTVSSDIVMTQSPSTLSASVGDRVTITCRASQGISSWLAWYQQKPGRAPKVLIYKASTLESGVPSRFSGSGSGTDFTLTISSLQPEDFATYYCAAHYAAPWTFGQGTKLEIKR
# B5: CNTO-328 (antibody, INN chains, looked up, V domains shown)
# VH: EVQLVESGGKLLKPGGSLKLSCAASGFTFSSFAMSWFRQSPEKRLEWVAEISSGGSYTYYPDTVTGRFTISRDNAKNTLYLEMSSLRSEDTAMYYCARGLWGYYALDYWGQGTSVTVSS
# VL: QIVLIQSPAIMSASPGEKVTMTCSASSSVSYMYWYQQKPGSSPRLLIYDTSNLASGVPVRFSGSGSGTSYSLTISRMEAEDAATYYCQQWSGYPYTFGGGTKLEIK
# Molecular target: Mature human IL-6 (human) (UniProt P05231)
# Experiment: cell-based or functional assay
# Sequence of Mature human IL-6 (human) (P05231 30-212): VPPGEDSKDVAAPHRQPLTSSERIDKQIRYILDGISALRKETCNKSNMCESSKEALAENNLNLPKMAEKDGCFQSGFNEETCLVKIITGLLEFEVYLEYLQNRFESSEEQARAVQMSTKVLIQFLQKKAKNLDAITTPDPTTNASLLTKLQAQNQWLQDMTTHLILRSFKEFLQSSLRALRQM
Binder,"IC50, TF-1 cell proliferation assay [pM]","IC50, IL-6 induced TF-1 cell proliferation assay [pM]","IC50, endogenous IL-6 induced synovial fibroblast VEGF release assay [nM]"
B1,419,–,–
B2,448,–,–
B3,42,–,–
B4,41,–,–
B5,74,101,1.31
